According to US20210196796A1 (SYNTHEKINE, published 2021):

T1: orthogonal hCD122 receptor (hoRb), hCD122 with H133D and Y134F (human, UniProt P14784 27-550)
T1 sequence: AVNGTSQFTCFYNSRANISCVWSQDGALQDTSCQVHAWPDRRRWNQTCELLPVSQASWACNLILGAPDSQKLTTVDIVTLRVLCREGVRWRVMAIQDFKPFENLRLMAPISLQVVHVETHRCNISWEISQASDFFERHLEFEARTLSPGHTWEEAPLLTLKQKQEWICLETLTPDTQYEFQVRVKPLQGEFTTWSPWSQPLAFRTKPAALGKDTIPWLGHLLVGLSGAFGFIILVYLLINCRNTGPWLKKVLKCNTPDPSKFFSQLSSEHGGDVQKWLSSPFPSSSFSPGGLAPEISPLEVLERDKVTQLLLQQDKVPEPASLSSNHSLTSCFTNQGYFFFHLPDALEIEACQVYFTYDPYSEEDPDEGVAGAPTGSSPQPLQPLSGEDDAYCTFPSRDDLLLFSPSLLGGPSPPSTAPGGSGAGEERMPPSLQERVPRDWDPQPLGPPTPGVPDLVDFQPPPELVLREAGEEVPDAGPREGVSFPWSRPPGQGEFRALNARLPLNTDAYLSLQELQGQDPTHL


Legend:
[1] = molecular target: T1, orthogonal hCD122 receptor (hoRb), …; test: cell-based or functional assay
[2] = molecular target: T1, orthogonal hCD122 receptor (hoRb), …; test: cell-based or functional assay; remark: listed apart in the source
Throughout, for Relative Proliferation Fold Change 3F8 1:10: reference of the scale not given here.
Throughout, for Relative Proliferation Fold Change 3F8 1:2: reference of the scale not given here.
Throughout, for Relative Proliferation Fold Change 3F8 1:50: reference of the scale not given here.
Throughout, for Relative Proliferation Fold Change NKL 1:10: reference of the scale not given here.
Throughout, for Relative Proliferation Fold Change NKL 1:2: reference of the scale not given here.
Throughout, for Relative Proliferation Fold Change NKL 1:50: reference of the scale not given here.

Row | NKL Ortho Proliferation Signal 1:2 [1] | NKL Ortho Proliferation Signal 1:10 [1] | NKL Ortho Proliferation Signal 1:50 [1] | Relative Proliferation Fold Change NKL 1:2 [1] [fold] | Relative Proliferation Fold Change NKL 1:10 [1] [fold] | Relative Proliferation Fold Change NKL 1:50 [1] [fold] | 3F8 Ortho Proliferation Signal 1:2 [2] [cts/min] | 3F8 Ortho Proliferation Signal 1:10 [2] [cts/min] | 3F8 Ortho Proliferation Signal 1:50 [2] [cts/min] | Relative Proliferation Fold Change 3F8 1:2 [2] [fold] | Relative Proliferation Fold Change 3F8 1:10 [2] [fold] | Relative Proliferation Fold Change 3F8 1:50 [2] [fold] | Binder
1 | 68600 | 75000 | 37400 | 3.97 | 3.86 | 2.06 | 36100 | 36200 | 18900 | 20.8 | 45.5 | 16 | T3E, SQVLKA (ligand) APESSSTKKTQLQLSQLLVLLKAILNGINNYKNPKLTRMLTFKFYMPKKATELKHLQCLEEELKPLEEVLNLAQSKNFHLRPRDLISNINVIVLELKGSETTFMCEYADETATIVEFLNRWITFCQSIISTLT
2 | 42900 | 35500 | 18400 | 3.47 | 2.47 | 1.38 | 28900 | 15100 | 7150 | 50.9 | 7.35 | 9.24 | T3K, SQVLKA (ligand) APKSSSTKKTQLQLSQLLVLLKAILNGINNYKNPKLTRMLTFKFYMPKKATELKHLQCLEEELKPLEEVLNLAQSKNFHLRPRDLISNINVIVLELKGSETTFMCEYADETATIVEFLNRWITFCQSIISTLT
3 | 55400 | 56900 | 32700 | 6.03 | 4.91 | 2.9 | 36500 | 39700 | 19000 | 33.9 | 42.8 | 38.5 | T3P, SQVLKA (ligand) APPSSSTKKTQLQLSQLLVLLKAILNGINNYKNPKLTRMLTFKFYMPKKATELKHLQCLEEELKPLEEVLNLAQSKNFHLRPRDLISNINVIVLELKGSETTFMCEYADETATIVEFLNRWITFCQSIISTLT
4 | 49800 | 53900 | 27900 | 4.09 | 4.03 | 2.34 | 33400 | 35000 | 13400 | 35.1 | 18.6 | 19 | T3D, SQVLKA (ligand) APDSSSTKKTQLQLSQLLVLLKAILNGINNYKNPKLTRMLTFKFYMPKKATELKHLQCLEEELKPLEEVLNLAQSKNFHLRPRDLISNINVIVLELKGSETTFMCEYADETATIVEFLNRWITFCQSIISTLT
5 | 62400 | 65700 | 31400 | 3.87 | 3.32 | 1.77 | 34200 | 27200 | 9790 | 2.07 | 2.99 | 4.1 | T3N, SQVLKA (ligand) APNSSSTKKTQLQLSQLLVLLKAILNGINNYKNPKLTRMLTFKFYMPKKATELKHLQCLEEELKPLEEVLNLAQSKNFHLRPRDLISNINVIVLELKGSETTFMCEYADETATIVEFLNRWITFCQSIISTLT
6 | 58400 | 40700 | 19300 | 4.15 | 2.9 | 1.45 | 28900 | 16800 | 5980 | 8.43 | 13.3 | 5.3 | T3R, SQVLKA (ligand) APRSSSTKKTQLQLSQLLVLLKAILNGINNYKNPKLTRMLTFKFYMPKKATELKHLQCLEEELKPLEEVLNLAQSKNFHLRPRDLISNINVIVLELKGSETTFMCEYADETATIVEFLNRWITFCQSIISTLT
